What all share (type): cell-based
One assay concerns P. aeruginosa strains. Nature of the assay: agar disc-diffusion assay, panel of 25 strains. To be noted: panel of 25 P. aeruginosa strains, in words. On the procedure:
(§1) Overnight P. aeruginosa cultures grown in CAA medium were equalized till OD595=1.0 in CAA and diluted 100×. Sterile cotton swab was briefly submerged in diluted microbial suspension, removing the excess of liquid by pressing it against the container wall. The swab was used for evenly streaking bacteria on plates containing growth medium with CAA solid agar (1.5%). 6 mm diameter sterile Whatman discs were placed on soft-agar and 0.3-30 μg of chimeric pyocins were spotted to paper disks. The plates were incubated overnight at 37° C. and bacteriocin inhibition zones were observed.
(§2) Next, all 25 P. aeruginosa strains were subjected to agar disc-diffusion assay by spotting different amounts of purified pyocin S5 (0.3 μg, 3 μg and 30 μg) on bacteria lawns. Six P. aeruginosa strains were resistant to pyocin S5. Four of these six strains were pyocin S5 and immunity protein-encoding strains—PA14, PAO1, […] and NCTC 13921. Two cystic fibrosis isolates, 12-35708 and 12-29165 were also completely resistant to pyocin S5, despite the absence of S5, or S5 immunity protein coding genes. […] Turbid inhibition zones were detected when 3 μg and 30 μg of S5 were spotted on the lawn of these strains (Table 1, FIG. 3).
For orientation: In agar diffusion tests the substance spreads into inoculated agar from a disc or well.

The next assay deals with P. aeruginosa EY76. The assay is described as follows: agar disc-diffusion assay. The settings on record: strain EY76; 0.3, 3 and 30 μg of protein spotted on discs on CAA agar lawn, overnight. On the procedure: as §1, §2
Another assay has as its system P. aeruginosa 13-18499. The assay is described as follows: agar disc-diffusion assay. The settings on record: strain 13-18499; 0.3, 3 and 30 μg of protein spotted on discs on CAA agar lawn, overnight. On the procedure: as §1, §2
Another assay relates to P. aeruginosa HP52. The assay is described as follows: agar disc-diffusion assay. To be noted: strain HP52; 0.3, 3 and 30 μg of protein spotted on discs on CAA agar lawn, overnight. On the procedure:
as §1, §2

Another assay relates to P. aeruginosa HP6. The assay is described as follows: agar disc-diffusion assay. To be noted: strain HP6; 0.3, 3 and 30 μg of protein spotted on discs on CAA agar lawn, overnight. On the procedure:
as §1, §2

Another assay deals with P. aeruginosa NCTC 13437. The assay is described as follows: agar disc-diffusion assay. To be noted: strain NCTC 13437; 0.3, 3 and 30 μg of protein spotted on discs on CAA agar lawn, overnight. On the procedure: as §1, §2
The subject of another assay is P. aeruginosa PA14. The assay is described as follows: agar disc-diffusion assay. The settings on record: strain PA14; 0.3, 3 and 30 μg of protein spotted on discs on CAA agar lawn, overnight. On the procedure:
as §1, §2

Another assay has as its system P. aeruginosa A19. Nature of the assay: agar disc-diffusion assay. To be noted: strain A19; 0.3, 3 and 30 μg of protein spotted on discs on CAA agar lawn, overnight. On the procedure:
as §1, §2

The next assay relates to P. aeruginosa ATCC 29260. Nature of the assay: agar disc-diffusion assay. The settings on record: strain ATCC 29260; 0.3, 3 and 30 μg of protein spotted on discs on CAA agar lawn, overnight. On the procedure: as §1, §2
In the next assay the test system is P. aeruginosa BI80. The assay is described as follows: agar disc-diffusion assay. The settings on record: strain BI80; 0.3, 3 and 30 μg of protein spotted on discs on CAA agar lawn, overnight. On the procedure:
as §1, §2

For the next assay, the system named is P. aeruginosa BL77. The assay is described as follows: agar disc-diffusion assay. To be noted: strain BL77; 0.3, 3 and 30 μg of protein spotted on discs on CAA agar lawn, overnight. On the procedure:
as §1, §2

In the next assay the test system is P. aeruginosa HP75. The assay is described as follows: agar disc-diffusion assay. To be noted: strain HP75; 0.3, 3 and 30 μg of protein spotted on discs on CAA agar lawn, overnight. On the procedure: as §1, §2
For a further assay, the system named is P. aeruginosa Pr335. The assay is described as follows: agar disc-diffusion assay. The settings on record: strain Pr335; 0.3, 3 and 30 μg of protein spotted on discs on CAA agar lawn, overnight. On the procedure:
as §1, §2

A further assay has as its system P. aeruginosa Bu002. Nature of the assay: agar disc-diffusion assay. The settings on record: strain Bu002; 0.3, 3 and 30 μg of protein spotted on discs on CAA agar lawn, overnight. On the procedure:
as §1, §2

Another assay deals with P. aeruginosa HP41. The assay is described as follows: agar disc-diffusion assay. To be noted: strain HP41; 0.3, 3 and 30 μg of protein spotted on discs on CAA agar lawn, overnight. On the procedure: as §1, §2
The next assay deals with P. aeruginosa HP40. Nature of the assay: agar disc-diffusion assay. To be noted: strain HP40; 0.3, 3 and 30 μg of protein spotted on discs on CAA agar lawn, overnight. On the procedure:
as §1, §2

The next assay deals with P. aeruginosa HP1. The assay is described as follows: agar disc-diffusion assay. The settings on record: strain HP1; 0.3, 3 and 30 μg of protein spotted on discs on CAA agar lawn, overnight. On the procedure: as §1, §2
In a further assay the test system is P. aeruginosa PAO1. Nature of the assay: agar disc-diffusion assay. The settings on record: strain PAO1; 0.3, 3 and 30 μg of protein spotted on discs on CAA agar lawn, overnight. On the procedure: as §1, §2
The next assay relates to P. aeruginosa NCTC 13921. Nature of the assay: agar disc-diffusion assay. To be noted: strain NCTC 13921; 0.3, 3 and 30 μg of protein spotted on discs on CAA agar lawn, overnight. On the procedure: as §1, §2
The test system of a further assay is P. aeruginosa UR78. The assay is described as follows: agar disc-diffusion assay. The settings on record: strain UR78; 0.3, 3 and 30 μg of protein spotted on discs on CAA agar lawn, overnight. On the procedure:
as §1, §2

The subject of another assay is P. aeruginosa BR79. The assay is described as follows: agar disc-diffusion assay. The settings on record: strain BR79; 0.3, 3 and 30 μg of protein spotted on discs on CAA agar lawn, overnight. On the procedure:
as §1, §2

The test system of another assay is P. aeruginosa HP7. The assay is described as follows: agar disc-diffusion assay. The settings on record: strain HP7; 0.3, 3 and 30 μg of protein spotted on discs on CAA agar lawn, overnight. On the procedure:
as §1, §2

The subject of assay [1] is P. aeruginosa Boston 41501 (ATCC 27853). The assay is described as follows: agar disc-diffusion assay. To be noted: strain Boston; 0.3, 3 and 30 μg of protein spotted on discs on CAA agar lawn, overnight. On the procedure:
as §1, §2

B1: S5-Pflu373: chimeric bacteriocin SEQ ID NO: 13: pyocin S5 first segment fused to P. fluorescens Pflu373 killing domain (protein)
chain: MSNDNEVPGSMVIVAQGPDDQYAYEVPPIDSAAVAGNMFGDLIQREIYLQKNIYYPVRSIFEQGTKEKKEINKKVSDQVDGLLKQITQGKREATRQERVDVMSAVLHKMESDLEGYKKTFTKGPFIDYEKQSSLSIYEAWVKIWEKNSWEERKKYPFQQLVRDELERAVAYYKQDSLSEAVKVLRQELNKQKALKEKEDLSQLERDYRTRKANLEMKVQSELDQAGSALPPLVSPTPEQWLERATRLVTQAIADKKQLQTTNNTLIKNSPTPLEKQKAIYNGELLVDEIASLQARLVKLNAETTRRRTEAEEQAKAEEEIKGAIKFTADFYKEIGEKYGAQMTASATDLAETAKGKTLRSAEEALKAFDQYKDHLDKKFSAADRAAIVNALDSLDRAELAKNLNLFAKGFGYTSKAFDVYDLVEEVKKSYASGDWNNTALKVETLFAGSAATGLIAFAFGVTVSTPVGIVAFALIMALVSAYIDDAHVKQFNDALDAILP
modifications: S5-Pflu373
On to B1, for which the “activity spectrum / profile in agar disc diffusion assay” value with P. aeruginosa strains was “good activity profile, similar to S5-Pflu095”. In addition, the “Activity in agar disc-diffusion assay” value is listed as “*** (activity detected with 0.3 μg of protein)” in the assay on P. aeruginosa EY76; “** (activity detected with 3 μg of protein)” in the assay on P. aeruginosa 13-18499; “** (activity detected with 3 μg of protein)” in the assay with P. aeruginosa HP52; “*** (activity detected with 0.3 μg of protein)” with P. aeruginosa HP6; “* (activity detected only with 30 μg of protein)” with P. aeruginosa NCTC 13437; “** (activity detected with 3 μg of protein)” with P. aeruginosa PA14. The “Activity in agar disc-diffusion assay” value is on record as “*** (activity detected with 0.3 μg of protein)” in the assay with P. aeruginosa A19; “*** (activity detected with 0.3 μg of protein)” in the assay with P. aeruginosa ATCC 29260; “*** (activity detected with 0.3 μg of protein)” in the assay with P. aeruginosa BI80; “** (activity detected with 3 μg of protein)” with P. aeruginosa BL77; “** (activity detected with 3 μg of protein)” in the assay with P. aeruginosa HP75; “*** (activity detected with 0.3 μg of protein)” in the assay with P. aeruginosa Pr335. In addition, the “Activity in agar disc-diffusion assay” value in the assay on P. aeruginosa Bu002 is recorded as “*** (activity detected with 0.3 μg of protein)”; with P. aeruginosa HP41 it was “*** (activity detected with 0.3 μg of protein)”; with P. aeruginosa HP40 it was “*** (activity detected with 0.3 μg of protein)”; in the assay on P. aeruginosa HP1, “*** (activity detected with 0.3 μg of protein)”; in the assay on P. aeruginosa PAO1, “*** (activity detected with 0.3 μg of protein)”; with P. aeruginosa NCTC 13921, “** (activity detected with 3 μg of protein)”. The “Activity in agar disc-diffusion assay” value in the assay on P. aeruginosa UR78 is “*** (activity detected with 0.3 μg of protein)”; in the assay with P. aeruginosa BR79, “** (activity detected with 3 μg of protein)”; in the assay with P. aeruginosa HP7, “*** (activity detected with 0.3 μg of protein)”; in assay [1] it was “*** (activity detected with 0.3 μg of protein)”.

B2: S5-Pflu618: chimeric bacteriocin SEQ ID NO: 21: pyocin S5 first segment fused to P. fluorescens Pflu618 killing domain (protein)
chain: MSNDNEVPGSMVIVAQGPDDQYAYEVPPIDSAAVAGNMFGDLIQREIYLQKNIYYPVRSIFEQGTKEKKEINKKVSDQVDGLLKQITQGKREATRQERVDVMSAVLHKMESDLEGYKKTFTKGPFIDYEKQSSLSIYEAWVKIWEKNSWEERKKYPFQQLVRDELERAVAYYKQDSLSEAVKVLRQELNKQKALKEKEDLSQLERDYRTRKANLEMKVQSELDQAGSALPPLVSPTPEQWLERATRLVTQAIADKKQLQTTNNTLIKNSPTPLEKQKAIYNGELLVDEIASLQARLVKLNAETTRRRTEAEAEAKRIDDYKRAVAFVADANKYILEKYGANLHQVVMDLQKDISGKKIRSYAEAMQTFEAVRTNPNARLSPQDTRAVVDALNALDKATYMDSVNKLAKGFGVTGKIVQAHSVIEKTVIGFRDGNWKPLILELESIALGAGAGAAVATLLAVFSPGFAASAIGIVAVGVAIATIASLLNADNVEKINVFISDHLETALKEQR
modifications: S5-Pflu618
For the molecule B2, the “activity spectrum / profile in agar disc diffusion assay” value in the assay with P. aeruginosa strains was “weaker and less broad activity in comparison to pyocin S5”. In addition, the “Activity in agar disc-diffusion assay” value is “* (activity detected only with 30 μg of protein)” in the assay with P. aeruginosa 13-18499; “* (activity detected only with 30 μg of protein)” in the assay with P. aeruginosa HP52; “* (activity detected only with 30 μg of protein)” in the assay with P. aeruginosa HP6; “*** (activity detected with 0.3 μg of protein)” in the assay on P. aeruginosa A19; “* (activity detected only with 30 μg of protein)” in the assay with P. aeruginosa ATCC 29260; “* (activity detected only with 30 μg of protein)” in the assay on P. aeruginosa BI80. The “Activity in agar disc-diffusion assay” value was “* (activity detected only with 30 μg of protein)” with P. aeruginosa BL77; “** (activity detected with 3 μg of protein)” with P. aeruginosa Pr335; “** (activity detected with 3 μg of protein)” in the assay on P. aeruginosa Bu002; “** (activity detected with 3 μg of protein)” with P. aeruginosa HP41; “** (activity detected with 3 μg of protein)” in the assay with P. aeruginosa HP40; “** (activity detected with 3 μg of protein)” in the assay with P. aeruginosa HP1. Also, the “Activity in agar disc-diffusion assay” value with P. aeruginosa PAO1 was “** (activity detected with 3 μg of protein)”; in the assay on P. aeruginosa NCTC 13921, “* (activity detected only with 30 μg of protein)”; with P. aeruginosa UR78, “* (activity detected only with 30 μg of protein)”; in the assay on P. aeruginosa HP7, “** (activity detected with 3 μg of protein)”; in [1], “** (activity detected with 3 μg of protein)”.

For the origin of these results see patent US20250188133A1, “CHIMERIC BACTERIOCINS AND METHOD FOR THE CONTROL OF PSEUDOMONAS” (priority 2022, published 2025).
